Data as given in patent publication US20250382386A1 (KINTOR PHARMACEUTICAL GUANGDONG, published 2025).
Like-named read-outs stand apart in the source and are kept apart here.

Key:
[1] = target: T1, human ALK-1 on cells (CHO-K1-hALK-1 cells; HUVEC; A172) (human, UniProt P37023 22-503); assay: cell-based or functional assay
[2] = target: T1, human ALK-1 on cells (CHO-K1-hALK-1 …); assay: flow cytometry on CHO-K1-hALK-1 cells ('Binding affinity to CHO-ALK1'), MFI; method as for FIG. 3
[3] = target: T1, human ALK-1 on cells (CHO-K1-hALK-1 …); assay: cell-based or functional assay; remark: listed apart in the source
[4] = target: T1, human ALK-1 on cells (CHO-K1-hALK-1 …); assay: cell-based or functional assay; remark: listed apart in the source
[5] = target: T1, human ALK-1 on cells (CHO-K1-hALK-1 …); assay: flow cytometry on CHO-K1-hALK-1 cells, MFI; VEGF 165-biotin and APC-anti-human IgG mAb added after the antibody
[6] = target: T1, human ALK-1 on cells (CHO-K1-hALK-1 …); assay: cell-based or functional assay; remark: listed apart in the source
[7] = target: T1, human ALK-1 on cells (CHO-K1-hALK-1 …); assay: cell-based or functional assay; remark: listed apart in the source
[8] = target: T1, human ALK-1 on cells (CHO-K1-hALK-1 …); assay: flow cytometry on CHO-K1-ALK-1 cells, MFI; detection with human PD-1-PE and PE anti-human IgG Fc antibody 'respectively'
[9] = target: T1, human ALK-1 on cells (CHO-K1-hALK-1 …); assay: flow cytometry on CHO-K1-hALK-1 cells, MFI

| IC50 of blocking BMP9-induced Smad1 phosphorylation in HUVEC cells (ELISA kit) [1] | Binder | further results |
| --- | --- | --- |
| 5.2 nM | anti-ALK-1 antibody #19 (antibody, human IgG1, kappa, L234A L235A, V domains shown) VH: QVQLQESGPGLVKPSQTLSLTCTVSGGSISSGEYYWNWIRQHPGKGLEWIGYIYYSGSTYYNPSLKSRVTISVDTSKNQFSLKLSSVTAADTAVYYCARESVAGFDYWGQGTLVTVSS VL: EIVLTQSPGTLSLSPGERATLSCRASQSVSSSYLAWYQQKPGQAPRLLIYGTSSRATGIPDRFSGSGSGTDFTLTISRLEPEDFAVYYCQFYGSWPITFGQGTRLEIKR | – |
| 9.1 nM | anti-ALK-1 antibody #25 (antibody, human IgG1, kappa, L234A L235A, V domains shown) VH: QVQLQESGPGLVKPSQTLSLTCTVSGGSISSGEYYWNWIRQHPGKGLEWIGYIYYSGSTYYNPSLKSRVTISVDTSKNQFSLKLSSVTAADTAVYYCARESVAGFDYWGQGTLVTVSS VL: EIVLTQSPGTLSLSPGERATLSCRASQSVSSSYLAWYQQKPGQAPRLLIYGTSSRATGIPDRFSGSGSGTDFTLTISRLEPEDFAVYYCQVYGSWPITFGQGTRLEIKR | – |
| 12.4 nM | anti-ALK-1 antibody #26 (antibody, human IgG1, kappa, L234A L235A, V domains shown) VH: QVQLQESGPGLVKPSQTLSLTCTVSGGSISSGEYYWNWIRQHPGKGLEWIGYIYYSGSTYYNPSLKSRVTISVDTSKNQFSLKLSSVTAADTAVYYCARESVAGFDYWGQGTLVTVSS VL: EIVLTQSPGTLSLSPGERATLSCRASQSVSSSYLAWYQQKPGQAPRLLIYGTSSRATGIPDRFSGSGSGTDFTLTISRLEPEDFAVYYCQVYGSVPITFGQGTRLEIKR | – |
| 6.3 nM | anti-ALK-1 antibody #27 (antibody, human IgG1, kappa, L234A L235A, V domains shown) VH: QVQLQESGPGLVKPSQTLSLTCTVSGGSISSGEYYWNWIRQHPGKGLEWIGYIYYSGSTYYNPSLKSRVTISVDTSKNQFSLKLSSVTAADTAVYYCARESVAGFDYWGQGTLVTVSS VL: EIVLTQSPGTLSLSPGERATLSCRASQSVSSSYLAWYQQKPGQAPRLLIYGTSSRATGIPDRFSGSGSGTDFTLTISRLEPEDFAVYYCQGYGSWPITFGQGTRLEIKR | – |
| 6.9 nM | anti-ALK-1 antibody #28 (antibody, human IgG1, kappa, L234A L235A, V domains shown) VH: QVQLQESGPGLVKPSQTLSLTCTVSGGSISSGEYYWNWIRQHPGKGLEWIGYIYYSGSTYYNPSLKSRVTISVDTSKNQFSLKLSSVTAADTAVYYCARESVAGFDYWGQGTLVTVSS VL: EIVLTQSPGTLSLSPGERATLSCRASQSVSSSYLAWYQQKPGQAPRLLIYGTSSRATGIPDRFSGSGSGTDFTLTISRLEPEDFAVYYCQIYGSVPITFGQGTRLEIKR | – |

Second part, the binder before the results:

| Binder | IC50 of blocking BMP9-induced Smad1 phosphorylation in HUVEC cells (ELISA kit) [1] | further results |
| --- | --- | --- |
| anti-ALK-1 antibody #1 (antibody, human IgG1, kappa, L234A L235A, V domains shown) VH: QVQLQESGPGLVKPSQTLSLTCTVSGGSISSGEYYWNWIRQHPGKGLEWIGYIYYSGSTYYNPSLKSRVTISVDTSKNQFSLKLSSVTAADTAVYYCARESVAGFDYWGQGTLVTVSS VL: EIVLTQSPGTLSLSPGERATLSCRASQSVSSSYLAWYQQKPGQAPRLLIYGTSSRATGIPDRFSGSGSGTDFTLTISRLEPEDFAVYYCQGYGSFPITFGQGTRLEIKR | 5.8 nM | – |
| anti-ALK-1 antibody #9 (antibody, human IgG1, kappa, L234A L235A, V domains shown) VH: QVQLQESGPGLVKPSQTLSLTCTVSGGSISSGEYYWNWIRQHPGKGLEWIGYIYYSGSTYYNPSLKSRVTISVDTSKNQFSLKLSSVTAADTAVYYCARESVAGFDYWGQGTLVTVSS VL: EIVLTQSPGTLSLSPGERATLSCRASQSVSSSYLAWYQQKPGQAPRLLIYGTSSRATGIPDRFSGSGSGTDFTLTISRLEPEDFAVYYCQIYGSWPITFGQGTRLEIKR | 11.6 nM | – |
| anti-ALK-1 antibody #12 (antibody, human IgG1, kappa, L234A L235A, V domains shown) VH: QVQLQESGPGLVKPSQTLSLTCTVSGGSISSGEYYWNWIRQHPGKGLEWIGYIYYSGSTYYNPSLKSRVTISVDTSKNQFSLKLSSVTAADTAVYYCARESVAGFDYWGQGTLVTVSS VL: EIVLTQSPGTLSLSPGERATLSCRASQSVSSSYLAWYQQKPGQAPRLLIYGTSSRATGIPDRFSGSGSGTDFTLTISRLEPEDFAVYYCQIYGSIPITFGQGTRLEIKR | 11.2 nM | – |
| anti-ALK-1 antibody #14 (antibody, human IgG1, kappa, L234A L235A, V domains shown) VH: QVQLQESGPGLVKPSQTLSLTCTVSGGSISSGEYYWNWIRQHPGKGLEWIGYIYYSGSTYYNPSLKSRVTISVDTSKNQFSLKLSSVTAADTAVYYCARESVAGFDYWGQGTLVTVSS VL: EIVLTQSPGTLSLSPGERATLSCRASQSVSSSYLAWYQQKPGQAPRLLIYGTSSRATGIPDRFSGSGSGTDFTLTISRLEPEDFAVYYCQMYGSWPITFGQGTRLEIKR | 11.1 nM | – |
| anti-ALK-1 antibody #3 (antibody, human IgG1, kappa, L234A L235A, V domains shown) VH: QVQLQESGPGLVKPSQTLSLTCTVSGGSISSGEYYWNWIRQHPGKGLEWIGYIYYSGSTYYNPSLKSRVTISVDTSKNQFSLKLSSVTAADTAVYYCARESVAGFDYWGQGTLVTVSS VL: EIVLTQSPGTLSLSPGERATLSCRASQSVSSSYLAWYQQKPGQAPRLLIYGTSSRATGIPDRFSGSGSGTDFTLTISRLEPEDFAVYYCQLYGSFPITFGQGTRLEIKR | 5.3 nM | – |
| anti-ALK-1 antibody #18 (antibody, human IgG1, kappa, L234A L235A, V domains shown, the rest as BM; also called #18 mutant; ALK-1 mAb (#18 mutant)) VH: QVQLQESGPGLVKPSQTLSLTCTVSGGSISSGEYYWNWIRQHPGKGLEWIGYIYYSGSTYYNPSLKSRVTISVDTSKNQFSLKLSSVTAADTAVYYCARESVAGFDYWGQGTLVTVSS VL: EIVLTQSPGTLSLSPGERATLSCRASQSVSSSYLAWYQQKPGQAPRLLIYGTSSRATGIPDRFSGSGSGTDFTLTISRLEPEDFAVYYCQAYGSWPITFGQGTRLEIKR | 8.2 nM | EC50 [2]: 0.447 nM; IC50; blocking of BMP9-induced Smad1 phosphorylation, pSmad1 ELISA assay in A172 cell line (right panel), OD 450 [3]: 2.39 nM; IC50; blocking of BMP9-induced Smad1 phosphorylation, pSmad1 ELISA assay in HUVEC (left panel), OD 450 [3]: 26.3 nM; IC50; blocking of BMP9-induced Smad1 phosphorylation, pSmad1 ELISA assay in A172 cell line, OD 450 [4]: 2.39 nM; EC50 [5]: 1.85 nM; IC50; blocking of BMP9-induced Smad1 phosphorylation, pSmad1 ELISA assay in HUVEC, OD450 [6]: 20.9 nM; IC50; blocking of BMP9-induced Smad1 phosphorylation, pSmad1 ELISA assay in HUVEC, OD450 [7]: 26.3 nM; EC50 [8]: 1.85 nM |
| Bevacizumab (antibody, V domains shown, Bought control antibody (Biointron, B7424); also called Avastin; VEGF-A monoclonal antibody (Bevacizumab)) VH: EVQLVESGGGLVQPGGSLRLSCAASGYTFTNYGMNWVRQAPGKGLEWVGWINTYTGEPTYAADFKRRFTFSLDTSKSTAYLQMNSLRAEDTAVYYCAKYPHYYGSSHWYFDVWGQGTLVTVSS VL: DIQMTQSPSSLSASVGDRVTITCSASQDISNYLNWYQQKPGKAPKVLIYFTSSLHSGVPSRFSGSGSGTDFTLTISSLQPEDFATYYCQQYSTVPWTFGQGTKVEIK | – | binding result [9]: no binding (tested: about 50 nM) |
